Test results from patent publication US20150306234.
Where a chain is given by its changes, count along the chain named.

What was measured:
[1] = tested on: T1, B domain deleted FVIII (BDD FVIII), unmutated
T1 sequence: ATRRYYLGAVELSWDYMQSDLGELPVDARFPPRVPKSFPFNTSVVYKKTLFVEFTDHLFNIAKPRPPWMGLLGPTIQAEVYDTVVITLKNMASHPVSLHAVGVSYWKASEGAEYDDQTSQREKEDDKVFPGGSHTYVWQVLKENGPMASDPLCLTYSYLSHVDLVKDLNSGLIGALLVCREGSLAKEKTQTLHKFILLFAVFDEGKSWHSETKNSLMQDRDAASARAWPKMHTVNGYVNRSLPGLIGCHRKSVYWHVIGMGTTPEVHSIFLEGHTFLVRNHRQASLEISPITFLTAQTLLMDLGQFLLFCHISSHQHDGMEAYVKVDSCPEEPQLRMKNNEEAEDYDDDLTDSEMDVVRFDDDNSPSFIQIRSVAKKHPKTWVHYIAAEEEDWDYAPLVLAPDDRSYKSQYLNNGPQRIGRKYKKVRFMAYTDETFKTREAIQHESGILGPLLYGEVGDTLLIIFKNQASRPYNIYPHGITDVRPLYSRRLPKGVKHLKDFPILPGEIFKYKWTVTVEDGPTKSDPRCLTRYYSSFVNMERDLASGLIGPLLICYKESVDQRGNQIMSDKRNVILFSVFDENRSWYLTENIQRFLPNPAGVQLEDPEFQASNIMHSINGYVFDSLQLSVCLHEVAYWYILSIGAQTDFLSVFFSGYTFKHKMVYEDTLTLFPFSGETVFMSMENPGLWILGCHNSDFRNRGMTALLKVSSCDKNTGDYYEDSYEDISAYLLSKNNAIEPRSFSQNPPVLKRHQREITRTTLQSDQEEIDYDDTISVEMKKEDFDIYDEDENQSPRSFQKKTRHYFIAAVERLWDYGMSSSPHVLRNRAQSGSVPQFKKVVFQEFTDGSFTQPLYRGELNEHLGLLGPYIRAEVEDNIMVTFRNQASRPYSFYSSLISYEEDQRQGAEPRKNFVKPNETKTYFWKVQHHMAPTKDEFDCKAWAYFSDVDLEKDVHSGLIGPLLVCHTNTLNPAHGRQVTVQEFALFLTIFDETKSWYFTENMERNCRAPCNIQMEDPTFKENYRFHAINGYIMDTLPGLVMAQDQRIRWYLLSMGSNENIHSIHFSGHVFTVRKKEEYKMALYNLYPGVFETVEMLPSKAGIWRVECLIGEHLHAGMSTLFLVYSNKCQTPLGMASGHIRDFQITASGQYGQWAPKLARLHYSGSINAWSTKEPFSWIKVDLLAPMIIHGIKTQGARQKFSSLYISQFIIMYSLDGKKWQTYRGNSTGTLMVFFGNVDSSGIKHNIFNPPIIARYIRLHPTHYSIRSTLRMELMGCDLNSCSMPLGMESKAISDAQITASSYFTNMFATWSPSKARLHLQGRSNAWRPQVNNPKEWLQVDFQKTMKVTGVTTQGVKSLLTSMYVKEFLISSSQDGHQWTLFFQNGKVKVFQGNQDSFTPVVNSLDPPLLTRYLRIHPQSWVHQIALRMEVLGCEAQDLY

[2] = tested on: T2, BDD FVIII mutein S2094C
T2 sequence: T1 sequence with L986F, S1200C

thrombin (Haematologic Technologies, Essex Junction, Vt.)
thrombin cleavage, SDS-PAGE with silver staining [1]: Thrombin digestion of the muteins and control produced the expected cleavage fragments.
thrombin cleavage, SDS-PAGE with silver staining [2]: Thrombin digestion of the muteins and control produced the expected cleavage fragments.
